The assay concerns the target c-Met on A549 cells (UniProt P08581). Description: half-maximal binding, flow cytometry on A549 cells.

This is an account of results in US20120237507A1.

UniProt P08581, sequence (P08581 25-1390 limits assumed): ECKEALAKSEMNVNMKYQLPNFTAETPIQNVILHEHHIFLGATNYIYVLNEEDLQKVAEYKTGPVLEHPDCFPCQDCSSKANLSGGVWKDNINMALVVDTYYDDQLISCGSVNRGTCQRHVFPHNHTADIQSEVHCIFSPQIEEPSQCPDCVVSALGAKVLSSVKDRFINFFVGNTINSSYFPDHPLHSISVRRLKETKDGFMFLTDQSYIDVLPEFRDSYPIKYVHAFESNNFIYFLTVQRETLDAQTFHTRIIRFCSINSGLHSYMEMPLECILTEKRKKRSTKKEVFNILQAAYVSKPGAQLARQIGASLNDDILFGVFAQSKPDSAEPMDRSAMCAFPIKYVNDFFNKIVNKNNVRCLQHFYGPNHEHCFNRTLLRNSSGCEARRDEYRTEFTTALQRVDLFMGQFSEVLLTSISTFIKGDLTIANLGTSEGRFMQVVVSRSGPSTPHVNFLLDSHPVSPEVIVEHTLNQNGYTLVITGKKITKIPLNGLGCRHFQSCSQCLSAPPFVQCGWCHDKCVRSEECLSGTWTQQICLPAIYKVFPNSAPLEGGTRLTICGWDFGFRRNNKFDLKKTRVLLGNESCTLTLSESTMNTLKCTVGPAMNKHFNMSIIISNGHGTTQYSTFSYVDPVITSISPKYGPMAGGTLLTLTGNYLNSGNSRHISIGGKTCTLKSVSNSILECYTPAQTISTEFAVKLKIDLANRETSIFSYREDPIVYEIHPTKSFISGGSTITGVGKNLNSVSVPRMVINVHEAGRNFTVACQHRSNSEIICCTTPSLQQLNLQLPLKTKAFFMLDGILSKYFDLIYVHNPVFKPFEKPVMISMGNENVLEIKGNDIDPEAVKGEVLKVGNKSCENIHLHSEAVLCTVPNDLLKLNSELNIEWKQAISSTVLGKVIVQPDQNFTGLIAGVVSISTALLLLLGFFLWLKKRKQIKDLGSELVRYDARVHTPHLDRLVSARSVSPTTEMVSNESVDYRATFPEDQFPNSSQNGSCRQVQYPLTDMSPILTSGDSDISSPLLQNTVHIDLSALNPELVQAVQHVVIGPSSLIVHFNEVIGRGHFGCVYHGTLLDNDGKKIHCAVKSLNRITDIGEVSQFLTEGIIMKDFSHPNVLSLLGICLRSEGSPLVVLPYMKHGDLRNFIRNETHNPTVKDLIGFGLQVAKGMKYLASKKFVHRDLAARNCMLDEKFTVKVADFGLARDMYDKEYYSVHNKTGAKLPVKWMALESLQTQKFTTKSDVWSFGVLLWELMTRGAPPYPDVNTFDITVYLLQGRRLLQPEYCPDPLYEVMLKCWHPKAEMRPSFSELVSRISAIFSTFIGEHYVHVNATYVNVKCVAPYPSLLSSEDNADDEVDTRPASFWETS

MetMAb/OA-5D5 (Genentech) (antibody) gave an EC50 of 1.45 nM.
